Here are results for one substance from publication PMC7943577.

The test addresses BOM1093 of Borrelia miyamotoi strain MYK3, 6xHis-tagged on the C terminus, expressed in B. garinii HT59G (Borrelia miyamotoi strain MYK3). In words: ELISA; Maxisorp wells coated with 0.5 µg/well sonicated B. garinii HT59G/pBOM1093 in TBS; recombinant human Vn 6.25-400 nM, 2 h at room temperature; detected with mouse anti-human Vn IgG; values of the mock strain (pBSV2) subtracted; KD fitted in Prism. Background: In an ELISA, binding on a coated surface is turned into a signal by an enzyme label.

The Kd is the equilibrium constant for the complex coming apart. For “recombinant human vitronectin (from UniProt P04004 20-478) (natural protein)”, the Kd came out at 0.0108 µM.
